# B1: lyophylized ovalbumin: individual protease inhibitor component of the Oralject cocktail (protein, UniProt P01012 2-386, looked up)
# Ovalbumin: GSIGAASMEFCFDVFKELKVHHANENIFYCPIAIMSALAMVYLGAKDSTRTQINKVVRFDKLPGFGDSIEAQCGTSVNVHSSLRDILNQITKPNDVYSFSLASRLYAEERYPILPEYLQCVKELYRGGLEPINFQTAADQARELINSWVESQTNGIIRNVLQPSSVDSQTAMVLVNAIVFKGLWEKAFKDEDTQAMPFRVTEQESKPVQMMYQIGLFRVASMASEKMKILELPFASGTMSMLVLLPDEVSGLEQLESIINFEKLTEWTSSNVMEERKIKVYLPRMKMEEKYNLTSVLMAMGITDVFSSSANLSGISSAESLKISQAVHAAHAEINEAGREVVGSAEAGVDAASVSEEFRADHPFLFCIKHIATNAVLFFGRCVSP
# B2: spray-dried ovalbumin: individual protease inhibitor component of the Oralject cocktail (protein, UniProt P01012 2-386, looked up)
# Ovalbumin: B1 Ovalbumin
# B3: bovine GH: bovine growth hormone (protein, UniProt P01246 27-217, looked up)
# Somatotropin: AFPAMSLSGLFANAVLRAQHLHQLAADTFKEFERTYIPEGQRYSIQNTQVAFCFSETIPAPTGKNEAQQKSDLELLRISLLLIQSWLGPLQFLSRVFTNSLVFGTSDRVYEKLKDLEEGILALMRELEDGTPRAGQILKQTYDKFDTNMRSDDALLKNYGLLSCFRKDLHKTETYLRVMKCRRFGEASCAF
# B4: recombinant bST: recombinant bovine somatotropin (Monsanto Co.) (protein, UniProt P01246 27-217, looked up)
# Somatotropin: B3 Somatotropin
# Legend:
# [1] = in vivo; cited from earlier work
# [2] = delivered together with deoxycholate; cited from earlier work
# proteolytic enzyme = assay: In vitro proteolytic enzyme inhibition (casein digestion by intestinal enzyme extract); assay type: biochemical, rainbow trout; conditions: increasing level of inhibitor inclusion; FIGS. 5-12
# Procedure: • 1. Centrifuge Sorvall model • 2. Bench-top blender • 3. Dissecting material (scissors) • 4. Centrifuge bottle • 5. Disposable cuvettes for spectrophotometer • 6. Microcentrifuge tubes 1.5 ml • 7. Spectrophotometer • 8. Vortexer • 9. Microplates reader from Biorad • 10. 50 mM Tris-HCl pH=7.5 • 11. Commassie blue staining solution • 12 BSA (1 mg\ml) standard solution • 13 TCA 20% • 14. Rainbow trouts pancreatic and duodenal tissues • 15.0.5% casein in 50 mM Tris-HCl pH=9 • 16.50 mM Tris-HCl+CaCl2 10 mM pH=7.5 Enzyme Extract • 1. Rainbow trout were weighed and sacrificed. • 2. Dissection was performed to remove the proximal small intestine from the fish. • 3. After weighing, the tissues were homogenised in 50 mM Tris-HCl ph=7.5 (1:10 w\v). • 4. Centrifuge at 16000×g for 30 min at 4° C. • 5. Keep the supernatant. Aliquot and store them at −20 C for further use. • 6. Perform Commassie assay to measure the amount of protein present in the enzyme extract. Commassie Blue Stain Protocol • 1. Weigh 160 mg of BSA in 10 ml of […] Tris-HCl pH=7.5. • 2. […] Read at 655 nm with the microplate reader from Biorad. […] Centrifuge at 12000×g for 5 min and read at 280 nm. […] Centrifuge at 12000×g for 5 min and read at 280 nm. […] Centrifuge at 12000×g for 5 min and read at 280 nm. […] Centrifuge at 12000×g for 5 min and read at 280 nm. […] Centrifuge at 12000×g for 5 min and read at 280 nm. […]
# salmonids = conditions: in vivo; cited from earlier work
# rainbow trout = assay: Growth enhancement, intraperitoneal bST; assay type: in vivo, Oncorhynchus mykiss; conditions: IP 20 μg bST/g live body weight weekly for 6 weeks
# Procedure: Intraperitoneal (IP) administration dose per fish weekly was 20 μg bST/g live body weight for 6 weeks.
molecule,measurement,setting,value
horseradish peroxidase,time to transport to the circulation after oral administration,[1],≤ 1 h
recombinant human GH: recombinant human growth hormone,enhancement of oral absorption,[2],≤ 1000 fold
B1,in vitro proteolytic enzyme inhibition,proteolytic enzyme,affect to differing degrees
B2,in vitro proteolytic enzyme inhibition,proteolytic enzyme,affect to differing degrees
B3,increase in growth rate,salmonids,two to three-fold
B4,body weight gain,rainbow trout,significantly induces increased body weight gain
